Results taken from US20140302039A1 (SAMSUNG ELECTRONICS, published 2014).
Each block holds one binder with its values, some of them ahead of it.

Target: T1, hAng-1 (human, UniProt Q15389 20-498, limits assumed)
T1 construct: Used in 'the same experiment' as hAng-2 C-His in SPR
T1 sequence (looked up): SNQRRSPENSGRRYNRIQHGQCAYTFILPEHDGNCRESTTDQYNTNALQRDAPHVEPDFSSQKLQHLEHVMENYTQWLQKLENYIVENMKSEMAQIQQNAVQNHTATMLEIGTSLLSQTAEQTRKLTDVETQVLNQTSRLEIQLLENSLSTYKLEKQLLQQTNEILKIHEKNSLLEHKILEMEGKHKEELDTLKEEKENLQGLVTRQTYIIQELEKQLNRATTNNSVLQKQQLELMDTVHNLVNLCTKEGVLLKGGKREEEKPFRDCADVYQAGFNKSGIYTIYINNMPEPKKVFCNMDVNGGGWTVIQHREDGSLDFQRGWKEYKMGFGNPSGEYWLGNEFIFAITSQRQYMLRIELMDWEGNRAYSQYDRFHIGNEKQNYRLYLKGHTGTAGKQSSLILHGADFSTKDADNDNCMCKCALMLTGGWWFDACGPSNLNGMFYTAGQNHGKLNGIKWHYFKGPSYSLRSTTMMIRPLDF
Experiment: SPR, BIAcore T100, antigen captured on chip, antibody from 100 nM in two-fold dilutions
Protocol: An anti-His antibody was immobilized to the degree of 8,000 response units (RU) on a CM5 sensor chip (GE Healthcare) using a pH 5.0 acetate solution and an amine coupling kit (GE Healthcare). Recombinant hAng-2 protein (C-His, R&D Systems) was flowed into this immobilized antibody at a concentration of 6 μg/ml to capture the antibody at 100˜200 RU. In this regard, the antibodies obtained in Reference Example 2.2.2 were serially diluted by half each time starting from 100 nM before application. […] Kd values were calculated from the measurements. The same experiment was conducted with hAng-1.

binding result: no binding
B1: SAIT-ANG-2-AB-m1B6 (antibody, V domains shown)
VH: QIQLVQSGPELKKPGETVKISCKASGYTFTNYGMNWVKQAPGKGLKWMGWINTYTGEPTYADDFKGRFAFSLETSASTAYLQINNLKNEDTATYFCARDHDGYLMDYWGQGTSVTVSS
VL: DIQMTQTTSSLSASLGDRVTISCSTSQGISNYLNWYQQKPDGTVKLLIFYTSSLHSGVPSRFSGSGSGTDYSLTISNLEPEDIATYYCQQYSKLPYTFGGGTKLEIK
notes: Mouse hybridoma monoclonal antibody purified on protein G; also called SAIT-ANG-m2-AB-1B6

binding result: no binding
B2: SAIT-ANG-2-AB-m8D3 (antibody, V domains shown)
VH: EVQLQQSGPELVKPGDSVKMSCKASGYTFTDYYMKWVRQSHGKSLQWVGEINPKNGDTFYNQIFKGKATLTVDKSSSTAYMQLTSLTSEDSAVYYCTRENDYDVGFFDYWGQGTSVTVSS
VL: TIVMTQTPKFLLVSAGDRITITCKASQSVSNDVAWYQQKPGQSPKLLIYYASNRYPGVPDRFTGSGYGTDFTFTISTVQAEDLAVYFCQQDYTSPWTFGGGTELEIK
notes: Mouse hybridoma monoclonal antibody purified on protein G

binding result: no binding
B3: SAIT-ANG-2-AB-m3E2 (antibody, V domains shown)
VH: EVQLQQSGAELVKPGASVKLSCTASGFNIKDPYIHWVKQRPEQGLEWIGRIDPANGNTKYDPKFQGKATITADTSSNTAYLQLSSLTSEDTAVYYCVRRWDGGGFDYWGQGTSVTVSS
VL: DIQMTQTTSSLSASLGDRVTISCRASQDISNYLNWYQQKPDGTVKLLIYYTSRLHSGVPSRFSGSGSGTDYSLTITNLEQEDIATYFCQQGNTLPWTFGGGTKLEIK
notes: as for B2
